In article doi:10.1101/2021.07.16.452612:

Molecular target: Recombinant wild-type mouse talin1 fragment R11 (residues 1,974–2,140) (mouse) (UniProt P26039)
Experiment: ITC

UniProt P26039, sequence (P26039 1974-2140): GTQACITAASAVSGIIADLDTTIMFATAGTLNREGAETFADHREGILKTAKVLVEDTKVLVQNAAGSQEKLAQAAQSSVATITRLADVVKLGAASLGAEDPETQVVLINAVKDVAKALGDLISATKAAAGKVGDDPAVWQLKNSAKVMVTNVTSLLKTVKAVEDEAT

Kd: 17 µM
dH: 4.8 kcal/mol
Substance: tensin3 H1 peptide (from UniProt Q68CZ2 692-712)
